Assays:
Assay in all cases: chloride ion selective electrode, initial rates, Michaelis-Menten fit
Details in all cases: 10 mM phosphate buffer pH 7.0, 21–23°C, soluble protein fraction
[1] = substrate: [O-][Cl+]O; type: biochemical, Ideonella dechloratans
Source text: chloride ion selective electrode, initial rates, Michaelis-Menten fit on rIdCld

[2] = substrate: [O-][Cl+]O; type: biochemical, Nitrospira defluvii
Source text: chloride ion selective electrode, initial rates, Michaelis-Menten fit on rNdCld

[3] = substrate: [O-][Cl+]O; type: biochemical, Nitrobacter winogradskyi
Source text: chloride ion selective electrode, initial rates, Michaelis-Menten fit on rNwCld

B1: rIdCld (Ideonella dechloratans) (protein)
chain: AMNTPVDRAKILSAPGVFVAFSTYKIRPDYFKVALAERKGAADEVMAVLEKHKEKVIVDAYLTRGYEAKSDYFLRVHAYDAVAAQAFLVDFRATRFGMYSDVTESLVGITKALNYISKDKSPDLNKGLSGATYAGDAPRFAFMIPVKKNADWWNLTDEQRLKEMETHTLPTLPFLVNVKRKLYHSTGLDDTDFITYFETNDLGAFNNLMLSLAKVPENKYHVRWGNPTVLGTIQPIENLVKTLSMGN
notes: recombinant, plasmid pET3a-Idcld (Dr. Rova) in E. coli BL21 (DE3); soluble protein fraction, not purified
[1]
  Km: 320 ± 160 µM

B2: rNdCld (Nitrospira defluvii) (protein)
chain: ADREKLLTESGVYGTFATFQMDHDWWDLPGESRVISVAEVKGLVEQWSGKILVESYLLRGLSDHADLMFRVHARTLSDTQQFLSAFMGTRLGRHLTSGGLLHGVSKKPTYVAGFPESMKTELQVNGESGSRPYAIVIPIKKDAEWWALDQEARTALMQEHTQAALPYLKTVKRKLYHSTGLDDVDFITYFETERLEDFHNLVRALQQVKEFRHNRRFGHPTLLGTMSPLDEILEKFAQ
notes: recombinant, plasmid pET21b-Ndcld (Dr. Daims) in E. coli BL21 (DE3); soluble protein fraction, not purified
[2]
  Km: 2500 ± 470 µM

B3: rNwCld (Nitrobacter winogradskyi Nb-255) (protein)
chain: MTFTVFTGGDSGAWSILSVAPVIGESLMAASHLAIAPSLSLGDTSATTPWQLRGVASHARYVERAEKIALTSVQAGLGRNEATRAALIPIRKSAAWWEMTQDERRAIFEDKSHHIAASLKYLPAIARQLYHCRDIGEPFDFLTWFEYAPEHATMFEDLVGVLRATEEWTYVEREVDIRLARAI
notes: recombinant, plasmid pET21b-Nwcld (Dr. Daims) in E. coli BL21 (DE3); soluble protein fraction, not purified
[3]
  Km: 380 ± 150 µM

Source: publication PMC5733030, “Characterizing Isozymes of Chlorite Dismutase for Water Treatment” (Frontiers in Microbiology, 2017)
